Experimental data: patent US9724381B2 (THE ADMINISTRATORS OF THE TULANE EDUCATIONAL FUND, priority 2009, dated 2017)
Where “and” joins values, the source holds several entries; their conditions need not be identical. Equal entries are not always repeated. Where no end group is shown, it is not given here. [ ]: non-standard residue; d: D form. d1Nal = N[C@H](Cc1cccc2ccccc12)C(=O)O; d2Nal = N[C@H](Cc1ccc2ccccc2c1)C(=O)O; dCha = N[C@H](CC1CCCCC1)C(=O)O; Nle = CCCC[C@H](N)C(=O)O

Molecular target: Ghrelin/GHRP/GHS Receptor (Rattus norvegicus, UniProt O08725)
Sequence (O08725 whole entry): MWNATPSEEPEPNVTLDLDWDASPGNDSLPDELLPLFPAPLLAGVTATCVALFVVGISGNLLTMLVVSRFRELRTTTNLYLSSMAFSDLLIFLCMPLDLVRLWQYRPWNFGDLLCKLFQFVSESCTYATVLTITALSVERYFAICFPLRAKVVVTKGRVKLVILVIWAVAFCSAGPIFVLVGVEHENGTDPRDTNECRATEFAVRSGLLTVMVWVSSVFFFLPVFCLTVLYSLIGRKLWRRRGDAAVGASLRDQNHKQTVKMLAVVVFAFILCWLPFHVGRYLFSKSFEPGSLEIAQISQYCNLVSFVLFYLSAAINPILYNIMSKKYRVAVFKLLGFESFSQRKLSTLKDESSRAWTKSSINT
Test: In vivo GH release in rat (serum GH by RIA after i.v. peptide)
Settings: for Unstimulated Basal GH release from rats: Table 5; for Unstimulated Basal GH Release from rat: Table 3; for Stimulated (S) GH release from rats / Unstimulated GH release from rats: Table 4, pentobarbital rats; for Stimulated (S) GH release from rats: P + S, stimulator 1 μg; for Unstimulated GH release from rats: −S
Procedure: For the in vivo assay of GH Release in rat, immature female Sprague Dawley rats were obtained from Charles River from Wilmington, Mass. After arrival they were housed at 25° C. with a 14:10 h light:dark cycle. Water and Purina rat chow were available at libitum. Pups were weaned at 21 days of age.
Immature twenty six day old female Sprague Dawley rats, 3-6 rats per treatment dose, were pretreated with pentobarbital 20 minutes before iv injection of vehicle/peptide or peptide plus stimulator. Injection was made as a 0.1 ml solution. For the non-pentobarbital treated rat assay, peptides were administered iv into the tail vein of conscious rats. All animals were sacrificed by guillotine after iv peptide or vehicle. Trunk blood was collected at +10-15 minutes […], allowed to clot, centrifuged and serum stored until assayed for GH levels by RIA. The GH RIA reagents were distributed by the NIH. Control data was collected from rats treated with only the corresponding vehicle in the absence of peptide or stimulator. Control stimulated data was collected from rats treated with stimulator alone in the absence of any peptide.

[1] = Table 2, peptide antagonist 30 μg i.v. + stimulator DAla-DβNal-Ala-Trp-DPhe-Lys-NH2 1 μg
[2] = Table 2, peptide antagonist 100 μg i.v. + stimulator DAla-DβNal-Ala-Trp-DPhe-Lys-NH2 1 μg
[3] = peptide antagonist alone 1 μg i.v.
[4] = peptide antagonist alone 3 μg i.v.
[5] = peptide antagonist alone 10 μg i.v.

Ala-His-DTrp-DLys-Trp-DPhe-Lys-NH2 (AH[dW][dK]W[dF]K-NH2; N-terminus assumed; SMILES C[C@H](N)C(=O)N[C@@H](Cc1c[nH]cn1)C(=O)N[C@H](Cc1c[nH]c2ccccc12)C(=O)N[C@H](CCCCN)C(=O)N[C@@H](Cc1c[nH]c2ccccc12)C(=O)N[C@H](Cc1ccccc1)C(=O)N[C@@H](CCCCN)C(N)=O)
Stimulated GH release from rat (Table 2, peptide antagonist 30 μg i.v. + stimulator DAla-DβNal-Ala-Trp-DPhe-Lys-NH2 0.3 μg): 1487 ± 397 ng/mL

Alaψ[CH2NH]-DβNal-Ala-Trp-DPhe-Lys-NH2 (A[d2Nal]AW[dF]K-NH2; also: Ala1-DβNal2 reduced bond ψ[CH2NH])
Stimulated GH release from rat (Table 2, peptide antagonist 3 μg i.v. + stimulator DAla-DβNal-Ala-Trp-DPhe-Lys-NH2 1 μg): 2771 ± 157 ng/mL
Stimulated GH release from rat (Table 2, peptide antagonist 10 μg i.v. + stimulator DAla-DβNal-Ala-Trp-DPhe-Lys-NH2 1 μg): 2341 ± 416 ng/mL
Stimulated GH release from rat [1]: 1948 ± 450 ng/mL
Stimulated GH release from rat [2]: 1639 ± 221 ng/mL

Alaψ[CH2NH]His-DTrp-Ala-Trp-DPhe-Lys-NH2 (AH[dW]AW[dF]K-NH2; also: reduced bond ψ[CH2NH] between Ala1 and His2)
Unstimulated Basal GH release from rats [3]: 127 ± 32 ng/mL
Unstimulated Basal GH release from rats [4]: 147 ± 37 ng/mL

DAla-Ala-DAla-DTrp-Phe-Lys-NH2 ([dA]A[dA][dW]FK-NH2; N-terminus assumed; SMILES C[C@H](NC(=O)[C@@H](C)N)C(=O)N[C@H](C)C(=O)N[C@H](Cc1c[nH]c2ccccc12)C(=O)N[C@@H](Cc1ccccc1)C(=O)N[C@@H](CCCCN)C(N)=O)
Unstimulated Basal GH release from rats [5]: 228 ± 76 ng/mL
Unstimulated Basal GH release from rats (peptide antagonist alone 30 μg i.v.): 172 ± 14 ng/mL
Unstimulated Basal GH release from rats (peptide antagonist alone 100 μg i.v.): 153 ± 45 ng/mL

DAla-DcyclohexylAla-Ala-Phe-DPhe-Nle-NH2 ([dA][dCha]AF[dF][Nle]-NH2; N-terminus assumed; SMILES CCCC[C@H](NC(=O)[C@@H](Cc1ccccc1)NC(=O)[C@H](Cc1ccccc1)NC(=O)[C@H](C)NC(=O)[C@@H](CC1CCCCC1)NC(=O)[C@@H](C)N)C(N)=O)
Unstimulated Basal GH Release from rat (peptide alone 1 μg i.v.): 435 ± 152 ng/mL
Unstimulated Basal GH Release from rat (peptide alone 3 μg i.v.): 195 ± 34 ng/mL
Unstimulated Basal GH Release from rat (peptide alone 10 μg i.v.): 250 ± 41 ng/mL
Unstimulated Basal GH Release from rat (peptide alone 30 μg i.v.): 393 ± 51 ng/mL
Unstimulated Basal GH Release from rat (peptide alone 100 μg i.v.): 697 ± 75 ng/mL

DAla-DβNal-Ala-Ala-DAla-Lys-NH2 ([dA][d2Nal]AA[dA]K-NH2; N-terminus assumed; SMILES C[C@H](NC(=O)[C@H](C)NC(=O)[C@@H](Cc1ccc2ccccc2c1)NC(=O)[C@@H](C)N)C(=O)N[C@H](C)C(=O)N[C@@H](CCCCN)C(N)=O)
Unstimulated Basal GH Release from rat (peptide alone 3 μg i.v.): 235 ± 43 ng/mL
Unstimulated Basal GH Release from rat (peptide alone 10 μg i.v.): 178 ± 33 ng/mL
Unstimulated Basal GH Release from rat (peptide alone 30 μg i.v.): 172 ± 15 ng/mL
Unstimulated Basal GH Release from rat (peptide alone 100 μg i.v.): 185 ± 39 ng/mL

DAla-DβNal-Ala-Thr-DThr-Lys-NH2 ([dA][d2Nal]AT[dT]K-NH2; N-terminus assumed; SMILES C[C@H](NC(=O)[C@@H](Cc1ccc2ccccc2c1)NC(=O)[C@@H](C)N)C(=O)N[C@H](C(=O)N[C@@H](C(=O)N[C@@H](CCCCN)C(N)=O)[C@H](C)O)[C@@H](C)O)
Unstimulated Basal GH Release from rat (peptide alone 3 μg i.v.): 255 ± 38 ng/mL
Unstimulated Basal GH Release from rat (peptide alone 30 μg i.v.): 288 ± 31 ng/mL
Unstimulated Basal GH Release from rat (peptide alone 100 μg i.v.): 386 ± 57 ng/mL

DAla-DβNal-Ala-Trp-DPhe-Lys-NH2 ([dA][d2Nal]AW[dF]K-NH2) [reference compound]
Stimulated Control 0.3 μg, GH release from rat (Table 2, stimulator DAla-DβNal-Ala-Trp-DPhe-Lys-NH2 alone, 0.3 μg): 2253 ± 252 ng/mL and 1412 ± 400 ng/mL
Stimulated Control 1 μg, GH release from rat (Table 2, stimulator DAla-DβNal-Ala-Trp-DPhe-Lys-NH2 alone, 1 μg): 3214 ± 276 ng/mL and 3105 ± 429 ng/mL and 2406 ± 288 ng/mL and 2825 ± 134 ng/mL and 3104 ± 429 ng/mL

DAla-DβNal-DAla-DTrp-Phe-Lys-NH2 ([dA][d2Nal][dA][dW]FK-NH2)
Unstimulated Basal GH Release from rat (peptide alone 1 μg i.v.): 184 ± 55 ng/mL
Unstimulated Basal GH Release from rat (peptide alone 3 μg i.v.): 467 ± 201 ng/mL
Unstimulated Basal GH Release from rat (peptide alone 10 μg i.v.): 244 ± 107 ng/mL

DAla-DβNal-DLys-DTrp-Phe-Lys-NH2 ([dA][d2Nal][dK][dW]FK-NH2; N-terminus assumed; SMILES C[C@@H](N)C(=O)N[C@H](Cc1ccc2ccccc2c1)C(=O)N[C@H](CCCCN)C(=O)N[C@H](Cc1c[nH]c2ccccc12)C(=O)N[C@@H](Cc1ccccc1)C(=O)N[C@@H](CCCCN)C(N)=O)
Stimulated GH release from rat [1]: 2884 ± 828 ng/mL
Stimulated GH release from rat [2]: 1198 ± 114 ng/mL
Stimulated (S) GH release from rats (peptide 30 μg i.v.): 2864 ± 828 ng/mL
Stimulated (S) GH release from rats (peptide 100 μg i.v.): 1198 ± 114 ng/mL
Unstimulated GH release from rats (peptide 30 μg i.v.): 323 ± 50 ng/mL
Unstimulated GH release from rats (peptide 100 μg i.v.): 812 ± 6 ng/mL

DLys-DβNal-Ala-Trp-DPhe-Lys-NH2 ([dK][d2Nal]AW[dF]K-NH2; N-terminus assumed; SMILES C[C@H](NC(=O)[C@@H](Cc1ccc2ccccc2c1)NC(=O)[C@H](N)CCCCN)C(=O)N[C@@H](Cc1c[nH]c2ccccc12)C(=O)N[C@H](Cc1ccccc1)C(=O)N[C@@H](CCCCN)C(N)=O)
Unstimulated GH release from rats (peptide 3 μg i.v.): 616 ± 169 ng/mL
Unstimulated GH release from rats (peptide 10 μg i.v.): 847 ± 17 ng/mL
Unstimulated GH release from rats (peptide 30 μg i.v.): 629 ± 146 ng/mL
Unstimulated GH release from rats (peptide 100 μg i.v.): 228 ± 45 ng/mL

DThr-DαNal-DTrp-DPro-Arg-NH2 ([dT][d1Nal][dW][dP]R-NH2; N-terminus assumed; SMILES C[C@H](O)[C@@H](N)C(=O)N[C@H](Cc1cccc2ccccc12)C(=O)N[C@H](Cc1c[nH]c2ccccc12)C(=O)N1CCC[C@@H]1C(=O)N[C@@H](CCCNC(=N)N)C(N)=O)
Unstimulated Basal GH release from rats [3]: 60 ± 5 ng/mL
Unstimulated Basal GH release from rats [4]: 130 ± 24 ng/mL
Unstimulated Basal GH release from rats [5]: 134 ± 31 ng/mL

DcyclohexylAla-Ala-Phe-DTrp-Lys-NH2 ([dCha]AF[dW]K-NH2; N-terminus assumed; SMILES C[C@H](NC(=O)[C@H](N)CC1CCCCC1)C(=O)N[C@@H](Cc1ccccc1)C(=O)N[C@H](Cc1c[nH]c2ccccc12)C(=O)N[C@@H](CCCCN)C(N)=O)
Unstimulated Basal GH Release from rat (peptide alone 1 μg i.v.): 199 ± 63 ng/mL
Unstimulated Basal GH Release from rat (peptide alone 3 μg i.v.): 266 ± 68 ng/mL
Unstimulated Basal GH Release from rat (peptide alone 10 μg i.v.): 199 ± 23 ng/mL
Unstimulated Basal GH Release from rat (peptide alone 30 μg i.v.): 346 ± 82 ng/mL
Unstimulated Basal GH Release from rat (peptide alone 100 μg i.v.): 350 ± 61 ng/mL

DcyclohexylAla-Ala-Trp-DPhe-NH2 ([dCha]AW[dF]-NH2; N-terminus assumed; SMILES C[C@H](NC(=O)[C@H](N)CC1CCCCC1)C(=O)N[C@@H](Cc1c[nH]c2ccccc12)C(=O)N[C@H](Cc1ccccc1)C(N)=O)
Unstimulated Basal GH Release from rat (peptide alone 3 μg i.v.): 181 ± 28 ng/mL
Unstimulated Basal GH Release from rat (peptide alone 10 μg i.v.): 237 ± 18 ng/mL
Unstimulated Basal GH Release from rat (peptide alone 30 μg i.v.): 354 ± 81 ng/mL
Unstimulated Basal GH Release from rat (peptide alone 100 μg i.v.): 771 ± 76 ng/mL

DβNal-Ala-Trp-DPhe-Ala-NH2 ([d2Nal]AW[dF]A-NH2; N-terminus assumed; SMILES C[C@H](NC(=O)[C@@H](Cc1ccccc1)NC(=O)[C@H](Cc1c[nH]c2ccccc12)NC(=O)[C@H](C)NC(=O)[C@H](N)Cc1ccc2ccccc2c1)C(N)=O)
Unstimulated Basal GH Release from rat (peptide alone 1 μg i.v.): 623 ± 60 ng/mL
Unstimulated Basal GH Release from rat (peptide alone 3 μg i.v.): 694 ± 70 ng/mL
Unstimulated Basal GH Release from rat (peptide alone 10 μg i.v.): 654 ± 58 ng/mL
Unstimulated Basal GH Release from rat (peptide alone 30 μg i.v.): 713 ± 71 ng/mL
